Assay results taken from patent US10538802B2, “Polypeptide substrate for the detection of von Williebrand factor cleaving protease ADAMTS13” (IMMUCOR GTI DIAGNOSTICS, INC., priority 2011, dated 2020).

Target: T1, ADAMTS13 (Homo sapiens, UniProt Q76LX8)
T1 construct: tissue Gen-Probe GTI Diagnostics (ATS-13 kit calibrators, controls and proficiency samples); George King Biomedical Inc. (FACT, A-FACT, B-FACT plasmas) ATS-13; host or cells: plasma
T1 sequence (Q76LX8 75-1427): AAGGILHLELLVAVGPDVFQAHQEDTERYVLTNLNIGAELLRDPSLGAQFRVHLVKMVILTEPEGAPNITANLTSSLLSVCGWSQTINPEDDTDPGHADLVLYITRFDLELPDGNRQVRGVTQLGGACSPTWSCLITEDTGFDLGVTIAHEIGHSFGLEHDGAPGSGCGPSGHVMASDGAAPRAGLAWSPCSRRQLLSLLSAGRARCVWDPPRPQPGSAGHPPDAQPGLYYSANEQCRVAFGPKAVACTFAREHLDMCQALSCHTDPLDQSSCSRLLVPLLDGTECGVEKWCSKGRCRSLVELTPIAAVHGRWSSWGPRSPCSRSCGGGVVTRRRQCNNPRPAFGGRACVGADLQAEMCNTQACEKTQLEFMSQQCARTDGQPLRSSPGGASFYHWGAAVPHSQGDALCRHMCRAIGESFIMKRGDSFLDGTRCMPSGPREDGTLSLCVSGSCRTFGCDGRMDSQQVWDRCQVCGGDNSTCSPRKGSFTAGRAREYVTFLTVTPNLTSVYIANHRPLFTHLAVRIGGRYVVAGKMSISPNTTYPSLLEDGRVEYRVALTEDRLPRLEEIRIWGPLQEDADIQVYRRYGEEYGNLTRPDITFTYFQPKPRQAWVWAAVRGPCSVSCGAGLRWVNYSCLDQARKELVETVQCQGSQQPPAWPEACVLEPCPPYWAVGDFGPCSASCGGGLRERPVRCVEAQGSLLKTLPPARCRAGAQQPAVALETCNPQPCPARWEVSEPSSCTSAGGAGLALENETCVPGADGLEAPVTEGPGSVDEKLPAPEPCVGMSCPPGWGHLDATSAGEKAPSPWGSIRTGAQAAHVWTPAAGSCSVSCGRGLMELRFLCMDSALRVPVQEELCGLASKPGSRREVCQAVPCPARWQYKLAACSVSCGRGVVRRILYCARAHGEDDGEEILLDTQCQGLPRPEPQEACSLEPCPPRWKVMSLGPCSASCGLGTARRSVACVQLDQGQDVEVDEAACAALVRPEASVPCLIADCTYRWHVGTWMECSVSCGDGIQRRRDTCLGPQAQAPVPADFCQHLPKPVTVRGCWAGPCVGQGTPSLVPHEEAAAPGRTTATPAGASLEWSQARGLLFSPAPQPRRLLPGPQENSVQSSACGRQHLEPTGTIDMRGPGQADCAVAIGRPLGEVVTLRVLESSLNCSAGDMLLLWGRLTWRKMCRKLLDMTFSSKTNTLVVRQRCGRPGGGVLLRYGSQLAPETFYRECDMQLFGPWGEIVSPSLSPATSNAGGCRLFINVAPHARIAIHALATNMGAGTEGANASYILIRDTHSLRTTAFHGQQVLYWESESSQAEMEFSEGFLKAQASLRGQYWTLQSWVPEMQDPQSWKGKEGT
Assay: ADAMTS13 activity assay with fluorogenic (FRET) polypeptide substrate and diluted plasma samples
Type: biochemical
Procedure: The procedure in this example was performed substantially as described in Kokame, K., Y. Nobe, Y. Kokubo, A. Okayama, and T. Miyata. 2005. FRETS-VWF73, a first fluorogenic substrate for ADAMTS13 assay. Br. J. Haematol. 129:93-100, but using SEQ ID NO: 1 in place of the 73 amino acid substrate described therein. The FRETS-VWF73 substrate solution was dissolved in 25% dimethyl sulphoxide/water to prepare the 100 microM stock solution. The GTI FRET4 SEQ ID NO: 1 was dissolved in 100% DMSO. Both substrates were diluted to equal concentrations using ATS-13 substrate buffer (Gen-Probe GT1 Diagnostics, Inc., U.S.A., Cat#ATS-13).
Plasma samples were diluted according to the ATS-13 Direction Insert using ATS-13 specimen diluent (Gen-Probe GTI Diagnostics, Inc., U.S.A., Cat# ATS-13). The diluted plasma samples were mixed with the diluted substrate and the fluorescence was read at 0, 5, 10, 15, 20, 30, 45 minutes using a Biotek FLX800 at the appropriate excitation and emission wavelengths for each substrate.
The fluorophore-quencher pair in the SEQ ID NO: 1 polypeptide substrate is FAM-5/TQ 2^Tm (Ex 485±20; Em 528±20; AAT Bioquest, Inc. Sunnyvale, Calif. U.S.A.). The fluorophore and quencher pair of FRETS-VWF73 (Nma/Dnp) described in Kokame has been substituted with FAM-5 and TQ_2 respectively in GTI_FRET4 SEQ ID NO: 1. Furthermore, in the SEQ ID NO: 1 polypeptide the position of the fluorophore (FAM-5) and quencher (TQ_2) has been swapped relative to the position of the fluorophore and quencher of the FRETS-VWF73 construct. Therefore, for GTI_FRET4 SEQ ID NO: 1, attachment of the fluorophore (FAM-5) occurs by substituting asparagine with cystine at position 15. The quencher (TQ_2) was attached by substituting glutamine with lysine at position 4 (FIG. 2 and Table 4).
For this experiment, substrate concentration and fluorescence reader settings determined on the previous experiment are used. The specimens tested (listed in Table 3), include a panel of proficiency samples prepared for use with ATS-13 (Gen-Probe GTI Diagnostics, Inc., U.S.A., Cat# ATS-13) which included samples with normal or deficient ADAMTS13 activity levels. In addition, six Factor Assay ConTrol plasma were used (2 FACT, 2 A-FACT and 2 B-FACT, from George King Biomedical Inc., Kansas, USA). The assays for the SEQ ID NO: 1 substrate and for the prior art FRETS-VWF73 assay were performed generally as according to the procedure described in Example 1. Substrate is prepared according to the conditions used for initial testing of the substrate, which prepared the molar amount of SEQ ID NO: 1 polypeptide substrate used in the assay to be equivalent to the molar amount of FRETS-VWF73 used in the prior art. The […] assays were read at 0, 5, 10, 15, 20, 30, 45 minutes.
Testing of substrate for cleavability by ADAMTS13 is determined as is generally described in Example 1. […]

For “DREKAPNLVYMVTGCPASDEIKRLPGDIQVVPIEVIGWPNAPILIQDEETLPREAPDLVLQR [GTI_FRET4]”, the “% Normal ADAMTS13 Values Calculated Using GTI_FRET4 Substrate” value (sample Calibrator D, incubation 15 Minutes) was 58 % Normal, the “% Normal ADAMTS13 Values Calculated Using GTI_FRET4 Substrate” value (sample Calibrator D, incubation 30 Minutes) was 59 % Normal and the “% Normal ADAMTS13 Values Calculated Using GTI_FRET4 Substrate” value (sample Calibrator D, incubation 45 Minutes) was 59 % Normal. The “% Normal ADAMTS13 Values Calculated Using GTI_FRET4 Substrate” value (sample Calibrator D, incubation 60 Minutes) was 60 % Normal, the “% Normal ADAMTS13 Values Calculated Using GTI_FRET4 Substrate” value (sample Calibrator D, incubation 75 Minutes) was 61 % Normal and the “% Normal ADAMTS13 Values Calculated Using GTI_FRET4 Substrate” value (sample Calibrator D, incubation 90 Minutes) was 62 % Normal. The “Increase in Fluorescence Values (X minute - 0 minute Reading)” value (“Increase in Fluorescence Values” below) (sample Calibrator E, 15 min) was 18,718 RFU, the “Increase in Fluorescence Values” value (sample Calibrator E, 30 min) was 35,085 RFU and the “Increase in Fluorescence Values” value (sample Calibrator E, 45 min) was 49,418 RFU. For the same sequence, the “Increase in Fluorescence Values” value (sample Calibrator E, 60 min) was 61,068 RFU, the “Increase in Fluorescence Values” value (sample Calibrator E, 75 min) was 70,603 RFU and the “Increase in Fluorescence Values” value (sample Calibrator E, 90 min) was 82,999 RFU. The “% Normal ADAMTS13 Values Calculated Using GTI_FRET4 Substrate” value (sample Calibrator E, incubation 15 Minutes) was 101 % Normal, the “% Normal ADAMTS13 Values Calculated Using GTI_FRET4 Substrate” value (sample Calibrator E, incubation 30 Minutes) was 101 % Normal and the “% Normal ADAMTS13 Values Calculated Using GTI_FRET4 Substrate” value (sample Calibrator E, incubation 45 Minutes) was 100 % Normal. The “% Normal ADAMTS13 Values Calculated Using GTI_FRET4 Substrate” value (sample Calibrator E, incubation 60 Minutes) was 100 % Normal, the “% Normal ADAMTS13 Values Calculated Using GTI_FRET4 Substrate” value (sample Calibrator E, incubation 75 Minutes) was 98 % Normal and the “% Normal ADAMTS13 Values Calculated Using GTI_FRET4 Substrate” value (sample Calibrator E, incubation 90 Minutes) was 98 % Normal. For the same sequence, the “Increase in Fluorescence Values” value (sample MON110707, 15 min) was 17,881 RFU, the “Increase in Fluorescence Values” value (sample MON110707, 30 min) was 33,432 RFU and the “Increase in Fluorescence Values” value (sample MON110707, 45 min) was 46,848 RFU. The “Increase in Fluorescence Values” value (sample MON110707, 60 min) was 58,747 RFU, the “Increase in Fluorescence Values” value (sample MON110707, 75 min) was 68,370 RFU and the “Increase in Fluorescence Values” value (sample MON110707, 90 min) was 78,371 RFU. For the same sequence, the “% Normal ADAMTS13 Values Calculated Using GTI_FRET4 Substrate” value (sample MON110707, incubation 15 Minutes) was 97 % Normal, the “% Normal ADAMTS13 Values Calculated Using GTI_FRET4 Substrate” value (sample MON110707, incubation 30 Minutes) was 96 % Normal and the “% Normal ADAMTS13 Values Calculated Using GTI_FRET4 Substrate” value (sample MON110707, incubation 45 Minutes) was 95 % Normal. The “% Normal ADAMTS13 Values Calculated Using GTI_FRET4 Substrate” value (sample MON110707, incubation 60 Minutes) was 96 % Normal, the “% Normal ADAMTS13 Values Calculated Using GTI_FRET4 Substrate” value (sample MON110707, incubation 75 Minutes) was 95 % Normal and the “% Normal ADAMTS13 Values Calculated Using GTI_FRET4 Substrate” value (sample MON110707, incubation 90 Minutes) was 92 % Normal. For the same sequence, the “Increase in Fluorescence Values” value (sample Positive Control High, 15 min) was 9,146 RFU, the “Increase in Fluorescence Values” value (sample Positive Control High, 30 min) was 17,281 RFU and the “Increase in Fluorescence Values” value (sample Positive Control High, 45 min) was 24,859 RFU. For the same sequence, the “Increase in Fluorescence Values” value (sample Positive Control High, 60 min) was 31,857 RFU, the “Increase in Fluorescence Values” value (sample Positive Control High, 75 min) was 39,838 RFU and the “Increase in Fluorescence Values” value (sample Positive Control High, 90 min) was 47,473 RFU. The “% Normal ADAMTS13 Values Calculated Using GTI_FRET4 Substrate” value (sample Positive Control High, incubation 15 Minutes) was 48 % Normal, the “% Normal ADAMTS13 Values Calculated Using GTI_FRET4 Substrate” value (sample Positive Control High, incubation 30 Minutes) was 49 % Normal and the “% Normal ADAMTS13 Values Calculated Using GTI_FRET4 Substrate” value (sample Positive Control High, incubation 45 Minutes) was 50 % Normal.
